# Test results published in patent US20120329708A1 (INDIANA UNIVERSITY RESEARCH AND TECHNOLOGY, published 2012).
# *1 amine or outer side, *2 acyl side, *3 side chain or, on linkers, in order; H or OH if unused. Where no end group is shown, it is not given here. Side-chain parts run from the residue outwards. [ ]: non-standard residue; d: D form. The star is where a group is joined. 40K‑TE PEG = 40 kDa PEG attached to Cys by thioether; γGlu = O=C(O)[C@H](CCC(=O)[*:2])N[*:1]; Palmitoyl = CCCCCCCCCCCCCCCC(=O)*; Morn = not defined here; Aib = CC(C)(N)C(=O)O
# B1: peptide of SEQ ID NO: 17 (peptide)
# peptide: H[Aib]QGTFTSDK([γGlu-γGlu-Palmitoyl])SKYLD[Aib]RAAQDFVQWLMNTK[γGlu]-NH2
# modifications: N-terminus assumed
# SMILES: CCCCCCCCCCCCCCCC(=O)N[C@@H](CCC(=O)N[C@@H](CCC(=O)NCCCC[C@H](NC(=O)[C@H](CC(=O)O)NC(=O)[C@H](CO)NC(=O)[C@@H](NC(=O)[C@H](Cc1ccccc1)NC(=O)[C@@H](NC(=O)CNC(=O)[C@H](CCC(N)=O)NC(=O)C(C)(C)NC(=O)[C@@H](N)Cc1c[nH]cn1)[C@@H](C)O)[C@@H](C)O)C(=O)N[C@@H](CO)C(=O)N[C@@H](CCCCN)C(=O)N[C@@H](Cc1ccc(O)cc1)C(=O)N[C@@H](CC(C)C)C(=O)N[C@@H](CC(=O)O)C(=O)NC(C)(C)C(=O)N[C@@H](CCCNC(=N)N)C(=O)N[C@@H](C)C(=O)N[C@@H](C)C(=O)N[C@@H](CCC(N)=O)C(=O)N[C@@H](CC(=O)O)C(=O)N[C@@H](Cc1ccccc1)C(=O)N[C@H](C(=O)N[C@@H](CCC(N)=O)C(=O)N[C@@H](Cc1c[nH]c2ccccc12)C(=O)N[C@@H](CC(C)C)C(=O)N[C@@H](CCSC)C(=O)N[C@@H](CC(N)=O)C(=O)N[C@H](C(=O)N[C@@H](CCCCN)C(=O)N[C@@H](CCC(N)=O)C(=O)O)[C@@H](C)O)C(C)C)C(=O)O)C(=O)O
# B2: peptide of SEQ ID NO: 15 (peptide)
# peptide: H[Aib]QGTFTSDK([γGlu-γGlu-Palmitoyl])SKYLD[Aib]RAAQDFVQWL[Morn]DTKQ-OH
# modifications: not fully specified; printed as HaibQGTFTSDK(γGlu-γGlu-C16)SKYLDaibRAAQDFVQWLMornDTKQ-acid; reading uncertain
# B3: peptide of SEQ ID NO: 14 (peptide)
# peptide: HSQGTFTSDKSKYLDERAAQDFVQWLLDTKX
# modifications: s at position 2 (lower case, presumably D-Ser); K(γGlu-C16) at position 10 (Lys acylated with C16 via γGlu spacer); C-terminal γGlu; C-terminal amide
# B4: peptide of SEQ ID NO: 16 (peptide)
# peptide: H[Aib]QGTFTSDK([γGlu-γGlu-Palmitoyl])SKYLD[Aib]RAAQDFVQWLLDTKQ-OH
# modifications: N-terminus assumed
# SMILES: CCCCCCCCCCCCCCCC(=O)N[C@@H](CCC(=O)N[C@@H](CCC(=O)NCCCC[C@H](NC(=O)[C@H](CC(=O)O)NC(=O)[C@H](CO)NC(=O)[C@@H](NC(=O)[C@H](Cc1ccccc1)NC(=O)[C@@H](NC(=O)CNC(=O)[C@H](CCC(N)=O)NC(=O)C(C)(C)NC(=O)[C@@H](N)Cc1c[nH]cn1)[C@@H](C)O)[C@@H](C)O)C(=O)N[C@@H](CO)C(=O)N[C@@H](CCCCN)C(=O)N[C@@H](Cc1ccc(O)cc1)C(=O)N[C@@H](CC(C)C)C(=O)N[C@@H](CC(=O)O)C(=O)NC(C)(C)C(=O)N[C@@H](CCCNC(=N)N)C(=O)N[C@@H](C)C(=O)N[C@@H](C)C(=O)N[C@@H](CCC(N)=O)C(=O)N[C@@H](CC(=O)O)C(=O)N[C@@H](Cc1ccccc1)C(=O)N[C@H](C(=O)N[C@@H](CCC(N)=O)C(=O)N[C@@H](Cc1c[nH]c2ccccc12)C(=O)N[C@@H](CC(C)C)C(=O)N[C@@H](CC(C)C)C(=O)N[C@@H](CC(=O)O)C(=O)N[C@H](C(=O)N[C@@H](CCCCN)C(=O)N[C@@H](CCC(N)=O)C(=O)O)[C@@H](C)O)C(C)C)C(=O)O)C(=O)O
# Target: human GCGR (CHO-K1 cells stably expressing human GCGR) (human, UniProt P47871 26-477)
# Sequence (P47871 26-477): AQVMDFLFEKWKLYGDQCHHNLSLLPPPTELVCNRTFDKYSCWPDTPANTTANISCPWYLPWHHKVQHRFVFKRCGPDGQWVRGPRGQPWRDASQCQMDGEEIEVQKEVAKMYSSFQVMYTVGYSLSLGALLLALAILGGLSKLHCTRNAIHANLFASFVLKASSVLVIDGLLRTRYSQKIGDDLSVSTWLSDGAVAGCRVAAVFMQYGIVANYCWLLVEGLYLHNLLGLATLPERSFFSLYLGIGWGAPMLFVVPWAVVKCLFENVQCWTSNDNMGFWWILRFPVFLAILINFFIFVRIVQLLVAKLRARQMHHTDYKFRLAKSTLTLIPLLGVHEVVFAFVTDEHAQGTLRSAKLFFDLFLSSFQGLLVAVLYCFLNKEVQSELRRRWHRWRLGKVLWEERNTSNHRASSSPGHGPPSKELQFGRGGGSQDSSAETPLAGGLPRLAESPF
# Experiment: cell-based or functional assay
row,Binder,"EC50 (nM) at glucagon receptor (cAMP production, DiscoveRx Hithunter cAMP XS+, CHO-K1) [nM]"
1,B1,0.11

# Target: human GLP-1R (CHO-K1 cells stably expressing human GLP-1R) (human, UniProt P43220 24-463)
# Experiment: cell-based or functional assay
row,Binder,"EC50 (nM) at GLP-1 receptor (cAMP production, DiscoveRx Hithunter cAMP XS+, CHO-K1) [nM]"
1,B1,0.075

# Target: T1, human GIPR (CHO-K1 cells stably expressing human GIPR) (human, UniProt P48546 22-466)
# T1 sequence (looked up): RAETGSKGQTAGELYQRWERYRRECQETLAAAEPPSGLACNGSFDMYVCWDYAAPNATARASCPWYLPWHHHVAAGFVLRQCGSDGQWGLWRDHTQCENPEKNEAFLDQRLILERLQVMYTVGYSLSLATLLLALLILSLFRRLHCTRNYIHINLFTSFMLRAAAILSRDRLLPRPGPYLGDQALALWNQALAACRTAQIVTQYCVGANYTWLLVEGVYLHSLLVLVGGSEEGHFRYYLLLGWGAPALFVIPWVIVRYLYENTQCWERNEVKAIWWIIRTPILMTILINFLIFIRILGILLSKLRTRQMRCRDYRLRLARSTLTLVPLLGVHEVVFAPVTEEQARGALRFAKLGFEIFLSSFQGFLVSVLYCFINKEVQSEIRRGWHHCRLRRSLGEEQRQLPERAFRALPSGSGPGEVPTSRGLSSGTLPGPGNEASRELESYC
# Experiment: cell-based or functional assay
row,Binder,"EC50 (nM) at GIP receptor (cAMP production, DiscoveRx Hithunter cAMP XS+, CHO-K1) [nM]"
1,B1,> 2000

# Target: glucagon receptor (HEK293 cells co-transfected with the glucagon receptor and a CRE-luciferase gene)
# Experiment: cell-based or functional assay
row,Binder,"EC50 (nM) at glucagon receptor (cAMP-induced luciferase reporter, HEK293) [nM]"
1,B2,0.006
2,H[Aib]QGTFTSDK([γGlu-γGlu-Palmitoyl])SKYLD[Aib]RAAQDFVQWLMDTK[γGlu]-NH2 [peptide of SEQ ID NO: 12],0.01
3,B3,0.003
4,H[Aib]QGTFTSDYSKYLDERRA[Aib]EFVC(40K‑TE PEG)WLLDTK[γGlu]-NH2 [peptide of SEQ ID NO: 13],2.81
5,B4,0.015

# Target: GLP-1 receptor (HEK293 cells co-transfected with the GLP-1 receptor and a CRE-luciferase gene)
# Experiment: cell-based or functional assay
row,Binder,"EC50 (nM) at GLP-1 receptor (cAMP-induced luciferase reporter, HEK293) [nM]"
1,B2,0.005
2,H[Aib]QGTFTSDK([γGlu-γGlu-Palmitoyl])SKYLD[Aib]RAAQDFVQWLMDTK[γGlu]-NH2 [peptide of SEQ ID NO: 12],0.003
3,B3,0.003
4,H[Aib]QGTFTSDYSKYLDERRA[Aib]EFVC(40K‑TE PEG)WLLDTK[γGlu]-NH2 [peptide of SEQ ID NO: 13],0.567
5,B4,0.019

# Target: T2, GIP receptor (procedure of Example 3)
# T2 sequence (P48546 whole entry, species assumed, looked up): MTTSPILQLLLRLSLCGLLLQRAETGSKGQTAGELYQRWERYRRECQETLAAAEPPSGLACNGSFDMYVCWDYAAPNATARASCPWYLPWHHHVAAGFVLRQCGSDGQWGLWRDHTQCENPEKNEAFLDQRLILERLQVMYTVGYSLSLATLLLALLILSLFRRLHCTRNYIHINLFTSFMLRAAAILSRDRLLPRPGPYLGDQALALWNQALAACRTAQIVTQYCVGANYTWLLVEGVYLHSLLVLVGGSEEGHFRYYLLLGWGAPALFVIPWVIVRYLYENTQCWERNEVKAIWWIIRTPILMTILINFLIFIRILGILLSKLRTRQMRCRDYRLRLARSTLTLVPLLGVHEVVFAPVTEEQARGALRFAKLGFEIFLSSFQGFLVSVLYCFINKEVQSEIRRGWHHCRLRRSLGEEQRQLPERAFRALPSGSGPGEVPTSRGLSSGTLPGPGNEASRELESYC
# Experiment: cell-based or functional assay
row,Binder,EC50 (nM) at GIP receptor (procedure of Example 3) [nM]
1,B2,1.9
2,H[Aib]QGTFTSDK([γGlu-γGlu-Palmitoyl])SKYLD[Aib]RAAQDFVQWLMDTK[γGlu]-NH2 [peptide of SEQ ID NO: 12],12.8
3,B3,976
4,H[Aib]QGTFTSDYSKYLDERRA[Aib]EFVC(40K‑TE PEG)WLLDTK[γGlu]-NH2 [peptide of SEQ ID NO: 13],140
5,B4,1.04
